Measurements from PMC4486954, “Highly homologous proteins exert opposite biological activities by using different interaction interfaces” (Scientific Reports, 2015).
Each block holds one molecule with its values, some of them ahead of it.

Key:
iASPP Ank-SH3 = molecular target: T1, iASPP Ank-SH3 (Homo sapiens, UniProt Q8WUF5); assay: Nickel affinity pulldown of iASPP Ank-SH3 by HLT-iASPP Pro; assay type: binding; settings: Nickel-NTA beads with HLT-iASPP Pro 1 h at 4 °C, then iASPP Ank-SH3 2 h at 4 °C; SDS-PAGE coomassie staining
T1 construct: (2) iASPP Ank-SH3 603-828; HLT tag (His tag + lipoyl domain + TEV site) (N, cleaved yes); made in house; host or cells: E. coli HMS 174 (Novagen)
T1 sequence (Q8WUF5 603-828): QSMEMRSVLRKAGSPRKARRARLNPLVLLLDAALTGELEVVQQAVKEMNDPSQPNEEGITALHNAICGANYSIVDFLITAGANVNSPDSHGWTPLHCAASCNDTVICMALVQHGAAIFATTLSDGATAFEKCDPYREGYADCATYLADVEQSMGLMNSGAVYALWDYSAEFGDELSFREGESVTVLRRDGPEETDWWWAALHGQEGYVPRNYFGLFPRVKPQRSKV
Description: After purifying the recombinant HLT-iASPP Pro and iASPP Ank-SH3 we tested whether the recombinant proteins interact using Nickel affinity pulldown assay. Nickel-NTA beads were incubated for one hour with HLT-iASPP Pro or with buffer or HLT alone. Then the beads were incubated with iASPP Ank-SH3 for two hours.
Figure 4 HLT-iASPP Pro interacts with iASPP Ank-SH3 in vitro. Nickel affinity pulldown of iASPP Ank-SH3 by HLT-iASPP Pro, SDS PAGE gel coomassie staining results. Nickel-NTA beads were incubated with HLT-iASPP Pro or with buffer or HLT fusion domain alone, for 1 h at 4 °C. The samples were centrifuged and then incubated with iASPP Ank-SH3 for 2 h at 4 °C. The samples were centrifuged again and the beads were washed 3 times. The beads were eluted by boiling them in SDS solution. Ank-SH3 eluted from the beads only in the presence of HLT-iASPP Pro.
30 μl Nickel-NTA beads (Qiagen) were incubated with: (1) 500 μl buffer C (50 mM Phosphate buffer pH = 7.0, 300 mM NaCl, 10% glycerol, 0.02% NaN3 and 0.001% Tween 20); (2) 250 μl 31 μM HLT; (3) 2 ml 1.7 μM HLT-iASPP Pro (in buffer C) for 1 hour with gentle mixing at 4 °C and in the presence of 40 mM imidazole. The samples were centrifuged (2 min 3500 RPM), and washed with buffer C (5 min, 4 °C, gentle mixing). […] Samples were analyzed on a 10% SDS-PAGE gel.

HLT-iASPP Pro = molecular target: T2, HLT-iASPP Pro (human, UniProt Q8WUF5 1-602); assay: pull-down; Nickel-NTA beads loaded with HLT-iASPP Pro (1.7 uM), HLT (31 uM) or buffer, 1 h, 4 °C, 40 mM imidazole; then iASPP Ank-SH3 (80 ul of 80 uM, diluted in 1 ml 25 mM phosphate pH 7.0, 10% glycerol, 25 mM imidazole, 100 mM NaCl), 2 h, 4 °C; three washes; eluted by boiling in SDS; Coomassie-stained SDS-PAGE; settings: both partners purified
T2 construct: iASPP (human), proline rich (Pro) domain, residues 1-602 of the 828-residue protein, Swiss-Prot Q8WUF5; Cloned EcoRI/NotI into pHis parallel 2HLT; calculated Mw with tag 75.9 kDa; also called iASPP Pro 1-602; iASPP 1-602; source: E. coli Rosetta2, purified (Nickel Sepharose, size exclusion chromatography); not shown: HLT (His tag, lipoyl domain, TEV protease cleavage site), N-terminal, kept
T2 sequence (looked up): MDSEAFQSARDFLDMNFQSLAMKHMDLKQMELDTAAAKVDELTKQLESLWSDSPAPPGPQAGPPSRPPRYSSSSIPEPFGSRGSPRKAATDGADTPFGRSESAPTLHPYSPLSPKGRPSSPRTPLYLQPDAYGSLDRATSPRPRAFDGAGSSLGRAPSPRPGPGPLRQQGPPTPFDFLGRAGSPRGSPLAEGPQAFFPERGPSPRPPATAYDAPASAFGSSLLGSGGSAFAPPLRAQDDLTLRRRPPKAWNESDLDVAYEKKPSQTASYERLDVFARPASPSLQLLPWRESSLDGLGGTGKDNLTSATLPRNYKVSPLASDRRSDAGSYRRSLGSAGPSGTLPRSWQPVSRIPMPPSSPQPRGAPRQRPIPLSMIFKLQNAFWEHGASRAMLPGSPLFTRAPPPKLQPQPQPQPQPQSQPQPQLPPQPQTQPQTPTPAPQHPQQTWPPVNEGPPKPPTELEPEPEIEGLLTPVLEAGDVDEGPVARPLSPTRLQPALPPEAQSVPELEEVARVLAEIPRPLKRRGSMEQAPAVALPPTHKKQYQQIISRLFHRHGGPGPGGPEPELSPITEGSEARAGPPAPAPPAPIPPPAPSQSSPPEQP

- pulldown of iASPP Ank-SH3 (iASPP Ank-SH3): retrieved
B1: HLT-iASPP Pro: recombinant iASPP Pro 1-602 with HLT (His-lipoyl domain-TEV) tag (protein)
chain: T2 sequence (looked up)
modifications: left off: HLT (His tag, lipoyl domain, TEV protease cleavage site), N-terminal, kept
notes: recombinant iASPP Pro 1-602 with HLT (His-lipoyl domain-TEV) tag

- binding result (HLT-iASPP Pro): binds
B2: iASPP Ank-SH3 (domain or fragment, human, UniProt Q8WUF5 603-828, looked up)
chain: T1 sequence (Q8WUF5 603-828)
notes: iASPP (human), four ankyrin repeats and SH3 domain, residues 603-828, Swiss-Prot Q8WUF5; also called iASPP Ank-SH3 603-828; cleaved iASPP Ank-SH3; source: E. coli HMS 174, purified (Nickel Sepharose, TEV cleavage, second Nickel column, size exclusion chromatography); not shown: HLT (His tag, lipoyl domain, TEV protease cleavage site), N-terminal, cleaved
